Experimental data: patent US20050089538A1 (IMMUNOMEDICS, published 2005)
Values belong to the binder of their own block, whether it stands above or below them.

How the values were obtained:
carcinoembryonic antigen [1] = biological target: T1, carcinoembryonic antigen (human, UniProt P06731 35-685, limits assumed); experiment: MN-14 blocking assay on CEA, competitor HRP-labeled MN-14 (FIG. 9)
T1 construct: CEA sample fixed to a solid support, directly or through a capture antibody such as MN-15; also called CEA
T1 sequence (looked up): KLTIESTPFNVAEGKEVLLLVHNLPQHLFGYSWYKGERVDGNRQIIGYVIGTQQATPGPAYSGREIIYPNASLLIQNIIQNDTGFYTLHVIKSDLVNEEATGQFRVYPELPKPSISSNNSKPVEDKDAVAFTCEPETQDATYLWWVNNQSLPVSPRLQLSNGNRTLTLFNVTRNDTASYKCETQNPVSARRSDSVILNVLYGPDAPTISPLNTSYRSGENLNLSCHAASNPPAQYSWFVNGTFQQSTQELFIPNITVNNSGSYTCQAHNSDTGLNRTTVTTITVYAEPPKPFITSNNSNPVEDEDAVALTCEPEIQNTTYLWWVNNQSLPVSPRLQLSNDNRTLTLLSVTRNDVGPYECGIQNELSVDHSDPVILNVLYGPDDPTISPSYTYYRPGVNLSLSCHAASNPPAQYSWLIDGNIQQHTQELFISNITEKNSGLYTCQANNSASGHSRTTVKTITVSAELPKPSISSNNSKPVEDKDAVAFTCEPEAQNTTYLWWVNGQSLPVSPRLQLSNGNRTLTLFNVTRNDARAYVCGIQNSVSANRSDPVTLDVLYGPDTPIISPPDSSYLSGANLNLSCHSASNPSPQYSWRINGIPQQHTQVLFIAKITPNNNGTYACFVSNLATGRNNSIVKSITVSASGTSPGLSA
Description: (§1) The humanized KLHuVH varients, such as antibody KLHuVHAIGA/HuVK, were purified and tested in a blocking assay carried out as follows. Antibodies were added at the indicated concentrations together with HRP-labeled MN-14 to a final volume of 0.1 ml. Following 30 mins. of incubation at 37₁C, and washing to remove unbound antibodies, the relative affinities of the antibodies were determined from the remaining bound peroxidase activity. A shown by the assay data of FIG. 9, the activity of the “reshaped” (i.e., CDR-engrafted on FR) humanized antibody was similar to that of chimeric and murine positive controls.

carcinoembryonic antigen [2] = biological target: T1, carcinoembryonic antigen; experiment: MN-14 blocking assay on CEA, unlabelled murine MN-14 against HRP-labeled MN-14 (FIG. 9)
Description: as §1

binding result (carcinoembryonic antigen [1]): binds
B1: chimeric MN-14 antibody (MN-14 mouse VH and VK joined to human IgG1 and human kappa constant regions) (antibody, V domains shown)
VH: EVKLLESGGGLVQSGGSLKLSCAASGFDFTTYWMSWVRQAPGKGLEWIGEIHPDSSTINYAPSLKDKFIVSRDNAKNTLYLQMSKVRSEDTALYYCASLYFGFPWFAYWGQGTPVTVSA
VL: EIQLTQSHKMMSTSVGDRVSITCKASQDVGTSVAWYQQRPGQSPKLLIYWTSTRHTGVPDRFTGSVSGTDFTLTITNVQSEDLADYFCQQYSLYRSFGGGTKLEIK
notes: Human IgG1 constant region (Takahashi et al.) and human kappa constant region (Hieter et al.); The variable regions were re-amplified with primers VH1BACK/VH1FOR and VK8BACK/VK3FOR, so their terminal residues may be dictated by the primers; also called chimeric control; chimeric antibody

binding result (carcinoembryonic antigen [2]): binds
B2: murine anti-CEA IgG1 monoclonal antibody MN-14 (antibody, V domains shown)
VH: B1 VH
VL: B1 VL
notes: Murine kappa IgG1; also called mMN-14; murine control
